From the Human Domainome abundance scans (Beltran et al. 2025)
± gives the uncertainty stated by the source.

experiment: abundance fitness (aPCA) (normalised: wild type 0, dead -1); higher = more abundant; growth selection in yeast, the domain comes from the species named; conditions: Saccharomyces cerevisiae (strain ATCC 204508 / S288c)

Substance	abundance fitness
E3 ubiquitin-protein ligase RSP5 A347C, P39940	0.08 ± 0.095
E3 ubiquitin-protein ligase RSP5 A347D, P39940	-0.025 ± 0.084
E3 ubiquitin-protein ligase RSP5 A347E, P39940	-0.034 ± 0.056
E3 ubiquitin-protein ligase RSP5 A347F, P39940	-0.067 ± 0.19
E3 ubiquitin-protein ligase RSP5 A347G, P39940	-0.043 ± 0.047
E3 ubiquitin-protein ligase RSP5 A347H, P39940	-0.048 ± 0.056
E3 ubiquitin-protein ligase RSP5 A347K, P39940	0.008 ± 0.053
E3 ubiquitin-protein ligase RSP5 A347L, P39940	-0.044 ± 0.045
E3 ubiquitin-protein ligase RSP5 A347M, P39940	0.089 ± 0.064
E3 ubiquitin-protein ligase RSP5 A347N, P39940	-0.034 ± 0.059
E3 ubiquitin-protein ligase RSP5 A347P, P39940	-0.115 ± 0.064
E3 ubiquitin-protein ligase RSP5 A347Q, P39940	-0.063 ± 0.055
E3 ubiquitin-protein ligase RSP5 A347R, P39940	-0.031 ± 0.045
E3 ubiquitin-protein ligase RSP5 A347V, P39940	-0.044 ± 0.046
E3 ubiquitin-protein ligase RSP5 A347W, P39940	-0.316 ± 0.047
E3 ubiquitin-protein ligase RSP5 A347Y, P39940	-0.128 ± 0.063
E3 ubiquitin-protein ligase RSP5 D351A, P39940	-0.731 ± 0.053
E3 ubiquitin-protein ligase RSP5 D351C, P39940	-0.256 ± 0.067
E3 ubiquitin-protein ligase RSP5 D351E, P39940	-0.488 ± 0.052
E3 ubiquitin-protein ligase RSP5 D351G, P39940	-0.89 ± 0.046
E3 ubiquitin-protein ligase RSP5 D351H, P39940	-0.574 ± 0.21
E3 ubiquitin-protein ligase RSP5 D351K, P39940	-0.748 ± 0.084
E3 ubiquitin-protein ligase RSP5 D351L, P39940	-1.08 ± 0.059
E3 ubiquitin-protein ligase RSP5 D351M, P39940	-0.772 ± 0.13
E3 ubiquitin-protein ligase RSP5 D351P, P39940	-1.24 ± 0.15
E3 ubiquitin-protein ligase RSP5 D351Q, P39940	-0.612 ± 0.21

Substance	abundance fitness
E3 ubiquitin-protein ligase RSP5 D351R, P39940	-0.864 ± 0.05
E3 ubiquitin-protein ligase RSP5 D351S, P39940	-0.584 ± 0.057
E3 ubiquitin-protein ligase RSP5 D351T, P39940	-0.966 ± 0.073
E3 ubiquitin-protein ligase RSP5 D351V, P39940	-1.24 ± 0.068
E3 ubiquitin-protein ligase RSP5 D351W, P39940	-1.28 ± 0.097
E3 ubiquitin-protein ligase RSP5 D361A, P39940	-0.269 ± 0.053
E3 ubiquitin-protein ligase RSP5 D361C, P39940	-0.183 ± 0.1
E3 ubiquitin-protein ligase RSP5 D361E, P39940	-0.266 ± 0.053
E3 ubiquitin-protein ligase RSP5 D361G, P39940	-0.534 ± 0.047
E3 ubiquitin-protein ligase RSP5 D361I, P39940	-0.632 ± 0.15
E3 ubiquitin-protein ligase RSP5 D361K, P39940	-0.25 ± 0.06
E3 ubiquitin-protein ligase RSP5 D361L, P39940	-0.641 ± 0.056
E3 ubiquitin-protein ligase RSP5 D361N, P39940	-0.304 ± 0.085
E3 ubiquitin-protein ligase RSP5 D361P, P39940	-0.516 ± 0.12
E3 ubiquitin-protein ligase RSP5 D361Q, P39940	-0.305 ± 0.086
E3 ubiquitin-protein ligase RSP5 D361S, P39940	-0.409 ± 0.054
E3 ubiquitin-protein ligase RSP5 D361T, P39940	-0.562 ± 0.065
E3 ubiquitin-protein ligase RSP5 D361V, P39940	-0.607 ± 0.043
E3 ubiquitin-protein ligase RSP5 D361Y, P39940	-0.594 ± 0.062
E3 ubiquitin-protein ligase RSP5 E332A, P39940	0.03 ± 0.051
E3 ubiquitin-protein ligase RSP5 E332C, P39940	-0.116 ± 0.08
E3 ubiquitin-protein ligase RSP5 E332D, P39940	0.038 ± 0.074
E3 ubiquitin-protein ligase RSP5 E332F, P39940	-0.165 ± 0.12
E3 ubiquitin-protein ligase RSP5 E332G, P39940	-0.066 ± 0.046
E3 ubiquitin-protein ligase RSP5 E332H, P39940	-0.551 ± 0.13
